According to US20240409645A1 (DUALYX, published 2024):

T1: mouse IL-2Rγ (mouse, UniProt P34902 23-263, limits assumed)
T1 construct: Recombinant mouse IL-2Rγ protein coated on the ELISA plate or immobilised on the CM5 chip; also called mo IL-2R
T1 sequence (looked up): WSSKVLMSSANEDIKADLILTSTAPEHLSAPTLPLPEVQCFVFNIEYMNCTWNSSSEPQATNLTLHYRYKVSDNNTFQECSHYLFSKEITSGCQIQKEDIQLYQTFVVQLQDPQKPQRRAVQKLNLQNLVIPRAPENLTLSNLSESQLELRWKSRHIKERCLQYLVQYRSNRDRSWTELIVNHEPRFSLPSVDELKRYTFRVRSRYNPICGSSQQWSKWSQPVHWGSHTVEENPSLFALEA

T2: human IL-2Rγ (common cytokine receptor γ-chain) (human, UniProt P31785 23-262, limits assumed)
T2 construct: Recombinant human IL-2Rγ protein coated on the ELISA plate or immobilised on the CM5 chip; also called hu IL-2R; CD132
T2 sequence: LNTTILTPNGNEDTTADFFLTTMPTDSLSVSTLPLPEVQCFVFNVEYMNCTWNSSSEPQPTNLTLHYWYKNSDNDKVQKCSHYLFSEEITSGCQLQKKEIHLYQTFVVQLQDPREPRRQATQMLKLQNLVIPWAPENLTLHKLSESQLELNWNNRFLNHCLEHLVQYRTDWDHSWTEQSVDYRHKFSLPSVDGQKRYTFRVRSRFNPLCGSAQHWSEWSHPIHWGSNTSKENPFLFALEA

T3: human common cytokine receptor γ-chain (γc; IL-2Rγ; CD132), recombinant protein (human, UniProt P31785 23-262)
T3 construct: also called human IL-2R subunit CD132
T3 sequence: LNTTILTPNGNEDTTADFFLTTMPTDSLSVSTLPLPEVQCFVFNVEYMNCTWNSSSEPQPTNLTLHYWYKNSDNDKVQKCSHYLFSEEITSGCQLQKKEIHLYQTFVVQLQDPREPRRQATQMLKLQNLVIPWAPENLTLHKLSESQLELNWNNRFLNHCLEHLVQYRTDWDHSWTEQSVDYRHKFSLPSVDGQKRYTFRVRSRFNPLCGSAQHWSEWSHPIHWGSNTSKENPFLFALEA

T4: cynomolgus monkey IL-2Rγ/CD132 subunit (cynomolgus monkey, UniProt A0A2K5VGJ6 23-262)
T4 construct: also called Cyno IL-2R subunit
T4 sequence: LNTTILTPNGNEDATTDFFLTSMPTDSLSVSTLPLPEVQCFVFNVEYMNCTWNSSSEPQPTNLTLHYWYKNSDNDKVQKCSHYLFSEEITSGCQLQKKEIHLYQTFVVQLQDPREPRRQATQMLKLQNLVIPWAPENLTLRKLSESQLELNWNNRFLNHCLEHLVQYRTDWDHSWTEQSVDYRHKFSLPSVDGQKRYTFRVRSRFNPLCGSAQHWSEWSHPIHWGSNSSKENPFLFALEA


Key:
mouse IL-2Rγ [1] = biological target: T1, mouse IL-2Rγ; assay: SPR off-rate ranking, periplasmic extract over immobilised mouse IL-2Rγ
Method: (§1) SPR was performed to determine dissociation rates using Biacore 3000 instrument (GE Healthcare). Briefly, human and mouse IL-2R proteins were immobilized on carboxylmethyl dextran sensor chip (CM5) at approximately 2500 RUs using amine coupling in acetate buffer (GE Healthcare). The VHH-containing P.E. were loaded with a flow rate of 30 uL/min and the off-rates were measured over a 120s period.

mouse IL-2Rγ [2] = biological target: T1, mouse IL-2Rγ; assay: binding ELISA, periplasmic extract on coated mouse IL-2Rγ
Method: (§2) In a binding ELISA, human or mouse IL-2Rα, IL-2Rβ and IL-2Rγ proteins were coated directly on maxisorp microtiter plates overnight at 4° C. Free binding sites were blocked using 4% Marvel in PBS for 1 hour. Next, 1:5 dilution of P.E. in 1% Marvel/PBS were added to wells and incubated for 1 hour. […] Binding specificity was determined based on O.D. at 450 nm values compared to negative controls.

[3] = biological target: T2, human IL-2Rγ (common cytokine receptor …); assay: SPR off-rate ranking, periplasmic extract over immobilised human IL-2Rγ
Method: as §1

[4] = biological target: T2, human IL-2Rγ (common cytokine receptor …); assay: binding ELISA, periplasmic extract on coated human IL-2Rγ
Method: as §2

[5] = biological target: T3, human common cytokine receptor γ-chain …; assay: ELISA, bivalent VHH-hFc
Method: (§3) Monospecific monovalent and bivalent IL-2Rα-, IL-2Rβ- and IL-2Rγ-specific antibodies that were selected on human IL-2R subunits, were evaluated for their cross-reactivity in an ELISA. Human and cynomolgus monkey receptor subunits (Acrobiosystems, KactusBiosystems) were coated at 1 μg/mL in PBS (pH 7.4) in a Maxisorp plate (Nunc) and incubated overnight at 4° C. The plates were further washed with PBS-Tween pH 7.4 and incubated with 1% cascin/PBS-Tween blocking solution for 1 hour shaking at 400 rpm. Subsequently, the plate was washed three times with PBS-Tween pH 7.4, after which the test antibodies diluted in 0.1% casein/PBS-Tween were added to the plate and incubated for 1 hour. The plate was again washed three times, after which goat anti-human IgG Fc (HRP) detection antibody (abcam) was added to the plate and incubated for 30 min. The colouring reaction was performed with TMB (Sigma-Aldrich) and stopped with 0.5N H₂SO₄.
(§4) Absorbance was measured at 450 nm with the reference wavelength of 620 nm using spectrophotometer. Final analysis and graphic output were performed with GraphPad Prism version 8 (GraphPad Software). The dose-response binding curves were fit to a nonlinear regression model (log (agonist) vs. response with a variable slope (four parameters)).

[6] = biological target: T4, cynomolgus monkey IL-2Rγ/CD132 subunit; assay: ELISA, bivalent VHH-hFc
Method: as §3, §4

[7] = biological target: T4, cynomolgus monkey IL-2Rγ/CD132 subunit; assay: ELISA, bivalent; EC50 cyno vs human subunit
Method: as §3, §4

Row | Binder | koff (mouse IL-2Rγ [1]) | P.E. binding ELISA OD450 (mouse IL-2Rγ [2]) | koff [3] | P.E. binding ELISA OD450 [4] | EC50 [5] | EC50 [6] | Fold change [7] | binding result [5] | binding result [6]
1 | FJ1427_P035MP07F11 (VHH, Tested as soluble VHH fragment in periplasmic extract (P.E.); also called Clone nr) VHH: QVQLVESGGGLVQAGGSLRLSCAASGRTLSRLAMGWFRQAPGKEREFVAVNSWGGDTFYADSVEGRFTYSRDNAKSAVYLQMNSLQPEDTAVYYCAAAPTSFATTAYSSSNSYAYWGQGTQVTVSS | 0.00757 s⁻¹ | 0.686 OD450 nm | 0.00131 s⁻¹ | 0.983 OD450 nm |  |  |  |  | 
2 | 34-MP04A12 VHH-hFc, monospecific bivalent (Fc fusion, IgG1 Fc LALA-PG; not shown: human IgG1 CH2 and CH3 domains (Fc)) QVQLVESGGGLVQAGSSLRLSCAASGRTLSRLAMGWFRQAPGKEREFVAVNSWGGDTFYADSVEGRFTYSRDNAKSAVYLQMNSLQPEDTAVYYCAAAPTSFATTAYSSSNSYAYWGQGAQVTVSS |  |  |  |  | 0.117 nM | 0.112 nM | 1 fold |  | 
3 | 28-MP04D02 VHH-hFc, monospecific bivalent (Fc fusion, IgG1 Fc LALA-PG; also called clone 28; not shown: human IgG1 CH2 and CH3 domains (Fc)) QVQLVESGGGLVQAGGSLRLSCAASGRTLSRYAMGWFRQAPGKEREFVTANSWGGDTYYADSVQGRFTFSRDNAKNTVYLQMNSLQPEDTAVYYCAAAPTSFATTAYSGSNSYAYWGQGTQVTVSS |  |  |  |  | 0.107 nM | 0.113 nM | 1.1 fold |  | 
4 | FJ1427_P035MP07D12 (VHH, Tested as soluble VHH fragment in periplasmic extract (P.E.); also called Clone nr; 668) VHH: QVQLVESGGGLVQAGGSLRLSCAASGRALSRLAMGWFRQAPGKEREFVVASSWGDDTFYADSVKGRFTFSRDNAKNTVYLQMNSLQPGDTAVYYCAAAPTSFATTAYSSSNSYAYWGQGTQVTVSS | 0.0122 s⁻¹ | 0.051 OD450 nm | 0.00199 s⁻¹ | 0.511 OD450 nm |  |  |  |  | 
5 | FJ1427_P035MP07E12 (VHH, Tested as soluble VHH fragment in periplasmic extract (P.E.); also called Clone nr) VHH: QVQLVESGGGLVQAGGSLRLSCAASGRTLSRYAMGWFRQAPGKEREFVTANSWGGDTYYTDSVEGRFTFSRDNAKNAVYLQMNSLQPEDTAVYYCAAAPTSFATTAYSSSNSYTYWGQGTQVTVSS | 0.0883 s⁻¹ | 0.05 OD450 nm | 0.00305 s⁻¹ | 0.956 OD450 nm |  |  |  |  | 
6 | FJ1427_P035MP07F12 (VHH, Tested as soluble VHH fragment in periplasmic extract (P.E.); also called Clone nr; 670) VHH: EVQLVESGGGLVQAGDSLRLSCVASGRTLSRCAMGWFRKAPGKEREYVAISSWGGDTFYEDSVEGRFTFSRDNAKNTVYLQMNSLRPEDTAVYYCAAAPTSFATTAYSSSNSYAYWGQGTQVTVSS | 0.00792 s⁻¹ | 0.341 OD450 nm | 0.00197 s⁻¹ | 0.823 OD450 nm |  |  |  |  | 

Further lines, results first:

Row | koff (mouse IL-2Rγ [1]) | P.E. binding ELISA OD450 (mouse IL-2Rγ [2]) | koff [3] | P.E. binding ELISA OD450 [4] | EC50 [5] | EC50 [6] | Fold change [7] | binding result [5] | binding result [6] | Binder
7 | 0.099 s⁻¹ | 0.046 OD450 nm | 0.00351 s⁻¹ | 0.999 OD450 nm |  |  |  |  |  | FJ1427_P035MP07G11 (VHH, Tested as soluble VHH fragment in periplasmic extract (P.E.); also called Clone nr) VHH: QVQLQESGGGLVQAGGSLRLSCAASGRTLSRYAMGWFRQAPGKEREFVTANSWGGDTYYADSVQGRFTFSRDNAKNTVYLQMNSLQPEDTAVYYCAAAPTSFATTAYSSSNSYAYWGQGTQVTVSS
8 | 0.066 s⁻¹ | 0.057 OD450 nm | 0.00252 s⁻¹ | 1.32 OD450 nm |  |  |  |  |  | FJ1427_P035MP07H11 (VHH, Tested as soluble VHH fragment in periplasmic extract (P.E.); also called Clone nr; 664) VHH: QVQLVESGGGLVQPGGSLRLSCAASGRTLSRYAMGWFRQAPGKDREFVAASSWGGDTFYADSVEGRFTFSRDNAENATYLQMNSLQPEDTAVYYCAAAPTSFATTAYSSSNSYGSWGQGTQVTVSS
9 |  |  |  |  |  |  |  | no binding | no binding | 35-MP07G01 VHH-hFc, monospecific bivalent (Fc fusion, IgG1 Fc LALA-PG; not shown: human IgG1 CH2 and CH3 domains (Fc)) QVQLQESGGGLVQGGGSLRLSCAASGGIFSSYAMGWFRQAPGKEREFVAAISRSGRSTNYADSVKGRFTISRDNAKSTVYLQMNSLKPEETAVYYCAAGRYYNSAYDPSPGDFGSWGHGTQVTVSS
